In publication PMC5600342 (Biochemistry and Biophysics Reports, 2016):
Values belong to the binder of their own block, whether it stands above or below them. Ends that are not written are not given here.

Legend:
[1] = target: mouse P1+P2 (stoichiometric mixture containing equal amounts of protamines P1 and P2) (mouse); assay: native gel or EMSA
[2] = target: T1, Mouse nucleoplasmin M.NPM2 (full murine NPM2) (mouse, UniProt Q80W85 1-207); assay: cross-linking
T1 sequence: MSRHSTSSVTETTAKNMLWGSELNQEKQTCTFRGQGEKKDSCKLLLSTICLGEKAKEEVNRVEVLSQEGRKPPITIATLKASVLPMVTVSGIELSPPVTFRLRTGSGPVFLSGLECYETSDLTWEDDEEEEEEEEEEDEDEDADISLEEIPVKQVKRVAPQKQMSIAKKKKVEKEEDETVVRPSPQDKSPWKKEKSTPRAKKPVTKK

- stoichiometry N [1]: 3 P1+P2:M.NPM2
B1: Mouse nucleoplasmin M.NPM2 (full murine NPM2) (natural protein)
chain: T1 sequence

- binding result [2]: binds
B2: Mouse protamine P1 (natural protein)
chain: MARYRC(pyridylethyl)C(pyridylethyl)RSKSRSRC(pyridylethyl)RRRRRRC(pyridylethyl)RRRRRRC(pyridylethyl)C(pyridylethyl)RRRRRRC(pyridylethyl)C(pyridylethyl)RRRRSYTIRC(pyridylethyl)KKY
